Measurements from patent publication US20210371517A1.
Where two headings read alike, the source gives them in different places.

Key:
Assay in all cases: cell-based or functional assay
CD171 (L1CAM) (human) [1] = molecular target: CD171 (L1CAM) (human) (UniProt P32004)
Fas (CD95) (human) = Fas (CD95) (human) (UniProt P25445)
CD171 (L1CAM) (human) [2] = molecular target: CD171 (L1CAM) (human) (UniProt P32004); remark: listed apart in the source

Chain of UniProt P32004 (P32004 20-1257): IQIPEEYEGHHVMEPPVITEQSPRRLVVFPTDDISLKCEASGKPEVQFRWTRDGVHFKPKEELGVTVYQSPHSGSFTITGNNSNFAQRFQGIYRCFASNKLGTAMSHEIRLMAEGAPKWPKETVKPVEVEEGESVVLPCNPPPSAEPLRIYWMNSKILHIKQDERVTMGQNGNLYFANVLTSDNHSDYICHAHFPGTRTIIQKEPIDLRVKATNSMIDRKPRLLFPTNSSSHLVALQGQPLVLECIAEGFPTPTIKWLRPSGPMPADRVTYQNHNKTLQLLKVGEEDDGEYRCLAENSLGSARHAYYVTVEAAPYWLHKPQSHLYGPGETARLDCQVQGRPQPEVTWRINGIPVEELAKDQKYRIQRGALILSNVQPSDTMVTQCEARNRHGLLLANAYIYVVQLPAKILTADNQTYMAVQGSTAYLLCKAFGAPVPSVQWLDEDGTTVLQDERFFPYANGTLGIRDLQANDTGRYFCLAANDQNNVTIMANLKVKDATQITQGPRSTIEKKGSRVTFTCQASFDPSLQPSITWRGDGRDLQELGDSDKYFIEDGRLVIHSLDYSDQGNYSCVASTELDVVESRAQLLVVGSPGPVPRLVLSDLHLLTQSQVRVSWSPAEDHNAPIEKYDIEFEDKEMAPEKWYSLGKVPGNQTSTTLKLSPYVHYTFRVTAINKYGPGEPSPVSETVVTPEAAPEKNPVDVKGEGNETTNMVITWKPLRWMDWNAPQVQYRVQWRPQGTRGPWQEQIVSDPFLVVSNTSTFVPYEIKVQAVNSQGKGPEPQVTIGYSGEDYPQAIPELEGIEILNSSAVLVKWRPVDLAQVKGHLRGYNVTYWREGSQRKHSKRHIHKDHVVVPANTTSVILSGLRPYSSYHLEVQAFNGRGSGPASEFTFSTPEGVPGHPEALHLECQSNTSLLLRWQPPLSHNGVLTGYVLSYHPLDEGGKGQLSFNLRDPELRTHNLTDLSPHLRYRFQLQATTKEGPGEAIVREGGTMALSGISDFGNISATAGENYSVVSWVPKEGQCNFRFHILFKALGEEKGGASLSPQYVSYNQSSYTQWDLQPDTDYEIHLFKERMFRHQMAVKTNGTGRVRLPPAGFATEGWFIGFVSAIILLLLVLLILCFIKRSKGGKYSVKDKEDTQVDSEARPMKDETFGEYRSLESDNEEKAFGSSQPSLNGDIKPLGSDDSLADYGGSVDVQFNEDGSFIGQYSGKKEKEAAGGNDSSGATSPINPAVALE
Chain of CE7scFv-IgG4hinge-CD28tm/cyto-4-1BB-zeta (short) CD171-specific chimeric receptor with two costimulatory domains (main): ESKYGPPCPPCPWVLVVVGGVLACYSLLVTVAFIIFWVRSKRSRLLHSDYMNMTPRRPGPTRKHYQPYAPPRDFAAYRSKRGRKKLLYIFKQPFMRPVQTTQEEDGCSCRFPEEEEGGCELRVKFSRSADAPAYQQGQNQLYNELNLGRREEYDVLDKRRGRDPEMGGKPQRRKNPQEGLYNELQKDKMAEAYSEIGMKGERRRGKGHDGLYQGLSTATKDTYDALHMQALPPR
Chain of UniProt P25445 (P25445 26-335): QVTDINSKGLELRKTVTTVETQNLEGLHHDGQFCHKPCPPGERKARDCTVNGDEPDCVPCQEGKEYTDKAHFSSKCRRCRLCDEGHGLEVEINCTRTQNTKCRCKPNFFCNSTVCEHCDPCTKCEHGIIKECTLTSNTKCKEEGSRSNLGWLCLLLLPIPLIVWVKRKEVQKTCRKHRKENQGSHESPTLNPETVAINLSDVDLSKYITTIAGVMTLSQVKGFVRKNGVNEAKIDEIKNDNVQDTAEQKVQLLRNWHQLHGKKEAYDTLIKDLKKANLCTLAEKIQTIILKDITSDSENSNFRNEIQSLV

Substance | % CD25+CD69+ T cells after round III of tumor cell co-culture (CD171 (L1CAM) (human) [1]) | IL-2 secretion in Be2 co-culture, fold over 2G-CAR(SS) (CD171 (L1CAM) (human) [1]) | TNF-α secretion in Be2 co-culture, fold over 2G-CAR(SS) (CD171 (L1CAM) (human) [1]) | cytolytic activity against Be2 targets, fold over 2G-CAR(SS) (CD171 (L1CAM) (human) [1]) | induction of CD137 expression upon tumor contact, fold over 2G-CAR(SS) (CD171 (L1CAM) (human) [1]) | T cell viability of 2G-CAR(LS) CTLs after round III following siRNA knockdown of Fas, fold increase (Fas (CD95) (human)) | T cell viability of 2G-CAR(LS) CTLs after round III following siRNA knockdown of FasL, fold increase (Fas (CD95) (human)) | % CD25+CD69+ T cells after round III of tumor cell co-culture (CD171 (L1CAM) (human) [2]) | % CD25+CD69+ T cells, stress test round I with Be2 cells (CD171 (L1CAM) (human) [1]) | % CD25+CD69+ T cells, stress test round II with Be2 cells (CD171 (L1CAM) (human) [1]) | % CD25+CD69+ T cells, stress test round III with Be2 cells (CD171 (L1CAM) (human) [1]) | IFN-γ secretion in Be2 co-culture, fold over 2G-CAR(SS) (CD171 (L1CAM) (human) [1]) | percentage of cells expressing activation marker CD137, fold over CD171-CAR(SS) (CD171 (L1CAM) (human) [1]) | phospho-ERK level after co-culture with CD171+ Be2 cells, fold over CD171-CAR(SS) (CD171 (L1CAM) (human) [1])
CE7scFv-IgG4hinge-CD28tm/cyto-4-1BB-zeta (short) CD171-specific chimeric receptor with two costimulatory domains | 60% | 5.1 fold | 2.5 fold | 1.3 fold | 8.4 fold | – | – | – | – | – | – | – | – | –
Fas ligand (FasL, CD178) (from UniProt P48023 1-281) | – | – | – | – | – | 1.4 fold | 1.6 fold | – | – | – | – | – | – | –
Ce7scFv-IgG4hinge-CH2-CH3-CD28tm/4-1BB-zeta (long construct) CD171-specific chimeric receptor | – | 6.3 fold | 6.1 fold | – | – | – | – | 66% | 79.4% | 74% | 65.7% | 8.4 fold | 5.7 fold | 3.1 fold
CE7scFv-IgG4hinge-CD28tm/4-1BB-zeta (short) CD171-specific chimeric receptor | 40% | – | – | – | – | – | – | 42% | 46.8% | 47.6% | 42.1% | – | – | –
